# Test results as given in paper PMC9015746.
# What was measured:
# [1] = target: purified wild-type VP5 protein (bluetongue virus BTV-1); assay: SEC
# [2] = target: Bluetongue virus core protein VP7 (in the purified BTV-1 virion) (bluetongue virus BTV-1); assay: cryo-EM structure
# [3] = target: Bluetongue virus membrane penetration protein VP5 (in the purified BTV-1 virion) (bluetongue virus BTV-1); assay: cryo-EM structure
substance,measurement,setting,value
purified wild-type VP5 protein (natural protein),stoichiometry N,[1],3
Bluetongue virus core protein VP7 (in the purified BTV-1 virion) (natural protein),stoichiometry N,[2],3
Bluetongue virus membrane penetration protein VP5 (in the purified BTV-1 virion) (natural protein),stoichiometry N,[3],3
